# Source: US20200054723A1 (ALLAKOS, published 2020)
# Molecular target: T1, recombinant human Siglec-8 extracellular domain (ECD) (human, UniProt Q9NYZ4 17-363)
# T1 construct: extracellular domain; also called Siglec-8 ECD; full Siglec-8 ECD
# Experiment: ELISA, coated Siglec-8 ECD
# Description: Binding of recombinant human Siglec-8 extracellular domain (ECD) by chimeric 2E2 and chimeric 2C4 IgG1K antibodies was measured by ELISA. […] Three-fold serial dilutions of a chimeric antibody (ch2E2 or ch2C4) or mouse antibody (m2E2 or m2C4) in 0.2% BSA/TBS (starting concentration was 5000 ng/mL) was added to each coated well. The plate was incubated for 2 hours at room temperature and the wells were subsequently washed before addition of goat-anti-human Fc peroxidase conjugate (1:10000 dilution) or anti-mouse Fc peroxidase conjugate (1:30000 dilution) diluted in 0.2% BSA/TBS solution. The plate was incubated for 45 minutes at room temperature, followed by washing and addition of 30 μL K-blue HRP substrate (SkyBio Ltd) to each well. After incubation at room temperature for 15 minutes, the reaction was stopped by adding 10 μL of Red Stop solution (SkyBio Ltd) to each well. The optical density or the experimental samples was read at 650 nm using the ELISA reader PHERAStar FS (BMG Labtech).
# The fully humanized antibody heavy and light chains were combined and compared with the chimeric antibody to determine if replacing the 4 Å and canonical framework residues and interface residues was sufficient to successfully humanize 2E2. Expi293 cells were co-transfected with combinations of different humanized light chain vectors in association with different humanized heavy chain vectors. Siglec-8 antigen was used to measure antibody binding by ELISA as described in Example 1.
# T1 sequence (Q9NYZ4 17-363): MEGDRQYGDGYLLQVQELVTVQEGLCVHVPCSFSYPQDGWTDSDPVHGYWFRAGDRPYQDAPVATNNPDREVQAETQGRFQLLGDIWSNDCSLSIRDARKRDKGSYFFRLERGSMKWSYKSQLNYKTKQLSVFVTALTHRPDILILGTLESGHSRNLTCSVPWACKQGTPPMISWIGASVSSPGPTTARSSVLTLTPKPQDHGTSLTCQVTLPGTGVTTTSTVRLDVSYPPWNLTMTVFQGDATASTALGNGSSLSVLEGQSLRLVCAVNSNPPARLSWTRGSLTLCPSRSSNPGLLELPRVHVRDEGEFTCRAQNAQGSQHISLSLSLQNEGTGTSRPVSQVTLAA
row,Binder,EC50 [nM]
1,"RHE E-DKA (antibody, human IgG1, V domains shown, human IgG1/kappa) VH: EVQLVESGGGLVQPGGSLRLSCAASGFSLTIYGAHWVRQAPGKGLEWVGVIWAGGSTNYNSALMSRFTISKDNSKNTVYLQMNSLRAEDTAVYYCARDGSSPYYYSMDYWGQGTTVTVSS VL: EIVLTQSPATLSLSPGERATLSCSATSSVSYMHWFQQKPGQAPRLLIYSTSNLASGIPARFSGSGSGTDFTLTISSLEPEDFAVYYCQQRSSYPFTFGPGTKLDIK",0.388
2,"HGKG (antibody, human IgG1, V domains shown, human IgG1/kappa; also called HGHG) VH: EVQLVESGGGLVQPGGSLRLSCAASGFSLTIYGAHWVRQAPGKGLEWVSVIWAGGSTNYNSALMSRFSISKDNSKNTVYLQMNSLRAEDTAVYYCARDGSSPYYYSMEYWGQGTTVTVSS VL: EIVLTQSPATLSLSPGERATLSCSATSSVSYMHWYQQKPGQAPRLLIYSTSNLASGIPARFSGSGSGTDFTLTISSLEPEDFAVYYCQQRSSYPFTFGPGTKLDIK",0.254
3,"RHE E-DKB (antibody, human IgG1, V domains shown, human IgG1/kappa) VH: EVQLVESGGGLVQPGGSLRLSCAASGFSLTIYGAHWVRQAPGKGLEWVGVIWAGGSTNYNSALMSRFTISKDNSKNTVYLQMNSLRAEDTAVYYCARDGSSPYYYSMDYWGQGTTVTVSS VL: EIILTQSPATLSLSPGERATLSCSATSSVSYMHWFQQKPGQAPRLWIYSTSNLASGVPARFSGSGSGTDYTLTISSLEPEDFAVYYCQQRSSYPFTFGPGTKLDIK",0.289
4,"RHE E-DKF (antibody, human IgG1, V domains shown, human IgG1/kappa) VH: EVQLVESGGGLVQPGGSLRLSCAASGFSLTIYGAHWVRQAPGKGLEWVGVIWAGGSTNYNSALMSRFTISKDNSKNTVYLQMNSLRAEDTAVYYCARDGSSPYYYSMDYWGQGTTVTVSS VL: EIVLTQSPATLSLSPGERATLSCSATSSVSYMHWFQQKPGQAPRLLIYSTSNLASGIPARFSGSGSGTDYTLTISSLEPEDFAVYYCQQRSSYPFTFGPGTKLDIK",0.445
5,"HGKFmut (antibody, human IgG1, V domains shown, human IgG1/kappa) VH: EVQLVESGGGLVQPGGSLRLSCAASGFSLTIYGAHWVRQAPGKGLEWVSVIWAGGSTNYNSALMSRFSISKDNSKNTVYLQMNSLRAEDTAVYYCARDGSSPYYYSMEYWGQGTTVTVSS VL: EIVLTQSPATLSLSPGERATLSCSATSSVSYMHWFQQKPGQAPRLLIYSTSNLASGIPARFSGSGSGTDYTLTISSLEPEDFAVYYCQQRSSYPYTFGPGTKLDIK",0.062
6,"RHE E-DKE (antibody, human IgG1, V domains shown, human IgG1/kappa) VH: EVQLVESGGGLVQPGGSLRLSCAASGFSLTIYGAHWVRQAPGKGLEWVGVIWAGGSTNYNSALMSRFTISKDNSKNTVYLQMNSLRAEDTAVYYCARDGSSPYYYSMDYWGQGTTVTVSS VL: EIVLTQSPATLSLSPGERATLSCSATSSVSYMHWFQQKPGQAPRLLIYSTSNLASGVPARFSGSGSGTDFTLTISSLEPEDFAVYYCQQRSSYPFTFGPGTKLDIK",0.364
7,"HGKE (antibody, human IgG1, V domains shown, human IgG1/kappa) VH: EVQLVESGGGLVQPGGSLRLSCAASGFSLTIYGAHWVRQAPGKGLEWVSVIWAGGSTNYNSALMSRFSISKDNSKNTVYLQMNSLRAEDTAVYYCARDGSSPYYYSMEYWGQGTTVTVSS VL: EIVLTQSPATLSLSPGERATLSCSATSSVSYMHWFQQKPGQAPRLLIYSTSNLASGVPARFSGSGSGTDFTLTISSLEPEDFAVYYCQQRSSYPFTFGPGTKLDIK",0.116
8,"HFKFmut (antibody, human IgG1, V domains shown, human IgG1/kappa) VH: EVQLVESGGGLVQPGGSLRLSCAASGFSLTIYGAHWVRQAPGKGLEWVSVIWAGGSTNYNSALMSRLTISKDNSKNTVYLQMNSLRAEDTAVYYCARDGSSPYYYSMEYWGQGTTVTVSS VL: EIVLTQSPATLSLSPGERATLSCSATSSVSYMHWFQQKPGQAPRLLIYSTSNLASGIPARFSGSGSGTDYTLTISSLEPEDFAVYYCQQRSSYPYTFGPGTKLDIK",0.057
9,"HFKE (antibody, human IgG1, V domains shown, human IgG1/kappa) VH: EVQLVESGGGLVQPGGSLRLSCAASGFSLTIYGAHWVRQAPGKGLEWVSVIWAGGSTNYNSALMSRLTISKDNSKNTVYLQMNSLRAEDTAVYYCARDGSSPYYYSMEYWGQGTTVTVSS VL: EIVLTQSPATLSLSPGERATLSCSATSSVSYMHWFQQKPGQAPRLLIYSTSNLASGVPARFSGSGSGTDFTLTISSLEPEDFAVYYCQQRSSYPFTFGPGTKLDIK",0.104
10,"RHE E-DKD (antibody, human IgG1, V domains shown, human IgG1/kappa) VH: EVQLVESGGGLVQPGGSLRLSCAASGFSLTIYGAHWVRQAPGKGLEWVGVIWAGGSTNYNSALMSRFTISKDNSKNTVYLQMNSLRAEDTAVYYCARDGSSPYYYSMDYWGQGTTVTVSS VL: EIVLTQSPATLSLSPGERATLSCSATSSVSYMHWFQQKPGQAPRLWIYSTSNLASGIPARFSGSGSGTDFTLTISSLEPEDFAVYYCQQRSSYPFTFGPGTKLDIK",0.316
11,"HGKD (antibody, human IgG1, V domains shown, human IgG1/kappa) VH: EVQLVESGGGLVQPGGSLRLSCAASGFSLTIYGAHWVRQAPGKGLEWVSVIWAGGSTNYNSALMSRFSISKDNSKNTVYLQMNSLRAEDTAVYYCARDGSSPYYYSMEYWGQGTTVTVSS VL: EIVLTQSPATLSLSPGERATLSCSATSSVSYMHWFQQKPGQAPRLWIYSTSNLASGIPARFSGSGSGTDFTLTISSLEPEDFAVYYCQQRSSYPFTFGPGTKLDIK",0.047
12,"RHE E-DKC (antibody, human IgG1, V domains shown, human IgG1/kappa) VH: EVQLVESGGGLVQPGGSLRLSCAASGFSLTIYGAHWVRQAPGKGLEWVGVIWAGGSTNYNSALMSRFTISKDNSKNTVYLQMNSLRAEDTAVYYCARDGSSPYYYSMDYWGQGTTVTVSS VL: EIILTQSPATLSLSPGERATLSCSATSSVSYMHWFQQKPGQAPRLLIYSTSNLASGIPARFSGSGSGTDFTLTISSLEPEDFAVYYCQQRSSYPFTFGPGTKLDIK",0.516

# More lines, in order of falling EC50, values ahead:
row,EC50 [nM],Binder
1,0.355,"HFKG (antibody, human IgG1, V domains shown, human IgG1/kappa) VH: EVQLVESGGGLVQPGGSLRLSCAASGFSLTIYGAHWVRQAPGKGLEWVSVIWAGGSTNYNSALMSRLTISKDNSKNTVYLQMNSLRAEDTAVYYCARDGSSPYYYSMEYWGQGTTVTVSS VL: EIVLTQSPATLSLSPGERATLSCSATSSVSYMHWYQQKPGQAPRLLIYSTSNLASGIPARFSGSGSGTDFTLTISSLEPEDFAVYYCQQRSSYPFTFGPGTKLDIK"
2,0.134,"HGKB (antibody, human IgG1, V domains shown, human IgG1/kappa) VH: EVQLVESGGGLVQPGGSLRLSCAASGFSLTIYGAHWVRQAPGKGLEWVSVIWAGGSTNYNSALMSRFSISKDNSKNTVYLQMNSLRAEDTAVYYCARDGSSPYYYSMEYWGQGTTVTVSS VL: EIILTQSPATLSLSPGERATLSCSATSSVSYMHWFQQKPGQAPRLWIYSTSNLASGVPARFSGSGSGTDYTLTISSLEPEDFAVYYCQQRSSYPFTFGPGTKLDIK"
3,0.118,"HFKF (antibody, human IgG1, V domains shown, human IgG1/kappa) VH: EVQLVESGGGLVQPGGSLRLSCAASGFSLTIYGAHWVRQAPGKGLEWVSVIWAGGSTNYNSALMSRLTISKDNSKNTVYLQMNSLRAEDTAVYYCARDGSSPYYYSMEYWGQGTTVTVSS VL: EIVLTQSPATLSLSPGERATLSCSATSSVSYMHWFQQKPGQAPRLLIYSTSNLASGIPARFSGSGSGTDYTLTISSLEPEDFAVYYCQQRSSYPFTFGPGTKLDIK"
4,0.088,"HGKF (antibody, human IgG1, V domains shown, human IgG1/kappa) VH: EVQLVESGGGLVQPGGSLRLSCAASGFSLTIYGAHWVRQAPGKGLEWVSVIWAGGSTNYNSALMSRFSISKDNSKNTVYLQMNSLRAEDTAVYYCARDGSSPYYYSMEYWGQGTTVTVSS VL: EIVLTQSPATLSLSPGERATLSCSATSSVSYMHWFQQKPGQAPRLLIYSTSNLASGIPARFSGSGSGTDYTLTISSLEPEDFAVYYCQQRSSYPFTFGPGTKLDIK"
5,0.065,"HGKC (antibody, human IgG1, V domains shown, human IgG1/kappa) VH: EVQLVESGGGLVQPGGSLRLSCAASGFSLTIYGAHWVRQAPGKGLEWVSVIWAGGSTNYNSALMSRFSISKDNSKNTVYLQMNSLRAEDTAVYYCARDGSSPYYYSMEYWGQGTTVTVSS VL: EIILTQSPATLSLSPGERATLSCSATSSVSYMHWFQQKPGQAPRLLIYSTSNLASGIPARFSGSGSGTDFTLTISSLEPEDFAVYYCQQRSSYPFTFGPGTKLDIK"
6,0.063,"HFKC (antibody, human IgG1, V domains shown, human IgG1/kappa) VH: EVQLVESGGGLVQPGGSLRLSCAASGFSLTIYGAHWVRQAPGKGLEWVSVIWAGGSTNYNSALMSRLTISKDNSKNTVYLQMNSLRAEDTAVYYCARDGSSPYYYSMEYWGQGTTVTVSS VL: EIILTQSPATLSLSPGERATLSCSATSSVSYMHWFQQKPGQAPRLLIYSTSNLASGIPARFSGSGSGTDFTLTISSLEPEDFAVYYCQQRSSYPFTFGPGTKLDIK"
7,0.061,"HGKA (antibody, human IgG1, V domains shown, human IgG1/kappa) VH: EVQLVESGGGLVQPGGSLRLSCAASGFSLTIYGAHWVRQAPGKGLEWVSVIWAGGSTNYNSALMSRFSISKDNSKNTVYLQMNSLRAEDTAVYYCARDGSSPYYYSMEYWGQGTTVTVSS VL: EIVLTQSPATLSLSPGERATLSCSATSSVSYMHWFQQKPGQAPRLLIYSTSNLASGIPARFSGSGSGTDFTLTISSLEPEDFAVYYCQQRSSYPFTFGPGTKLDIK"
8,0.058,"HFKD (antibody, human IgG1, V domains shown, human IgG1/kappa) VH: EVQLVESGGGLVQPGGSLRLSCAASGFSLTIYGAHWVRQAPGKGLEWVSVIWAGGSTNYNSALMSRLTISKDNSKNTVYLQMNSLRAEDTAVYYCARDGSSPYYYSMEYWGQGTTVTVSS VL: EIVLTQSPATLSLSPGERATLSCSATSSVSYMHWFQQKPGQAPRLWIYSTSNLASGIPARFSGSGSGTDFTLTISSLEPEDFAVYYCQQRSSYPFTFGPGTKLDIK"
